Consider five molecules from paper PMC4726530 (PLoS ONE, 2016).

As a reminder, the stoichiometry N is a count of units in the complex or per binding partner. A word on the Km: it is the substrate concentration at which the rate is half of its maximum. The term kcat denotes the number of substrate molecules converted per active site and unit of time at saturation.

For series [1], the target named is T1, GAOR2 (FAD site in M-subunit) (Sulfurisphaera tokodaii, UniProt Q974U9).
T1 construct: gene ST0562; same native (LMS)2 complex as P2; M-subunit 278 aa holds FAD; Putative oxidoreductase iron-sulfur subunit (S-subunit)
T1 sequence (Q974U9 1-278): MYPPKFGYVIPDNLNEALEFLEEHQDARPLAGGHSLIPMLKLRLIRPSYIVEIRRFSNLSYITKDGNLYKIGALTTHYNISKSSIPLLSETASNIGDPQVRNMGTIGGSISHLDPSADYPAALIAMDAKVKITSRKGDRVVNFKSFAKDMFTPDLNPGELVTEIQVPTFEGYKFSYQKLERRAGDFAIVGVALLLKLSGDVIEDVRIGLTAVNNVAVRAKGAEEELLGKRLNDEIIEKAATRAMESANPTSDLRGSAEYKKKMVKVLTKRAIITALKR
T1 sequence (Q96Y29 1-706 partner): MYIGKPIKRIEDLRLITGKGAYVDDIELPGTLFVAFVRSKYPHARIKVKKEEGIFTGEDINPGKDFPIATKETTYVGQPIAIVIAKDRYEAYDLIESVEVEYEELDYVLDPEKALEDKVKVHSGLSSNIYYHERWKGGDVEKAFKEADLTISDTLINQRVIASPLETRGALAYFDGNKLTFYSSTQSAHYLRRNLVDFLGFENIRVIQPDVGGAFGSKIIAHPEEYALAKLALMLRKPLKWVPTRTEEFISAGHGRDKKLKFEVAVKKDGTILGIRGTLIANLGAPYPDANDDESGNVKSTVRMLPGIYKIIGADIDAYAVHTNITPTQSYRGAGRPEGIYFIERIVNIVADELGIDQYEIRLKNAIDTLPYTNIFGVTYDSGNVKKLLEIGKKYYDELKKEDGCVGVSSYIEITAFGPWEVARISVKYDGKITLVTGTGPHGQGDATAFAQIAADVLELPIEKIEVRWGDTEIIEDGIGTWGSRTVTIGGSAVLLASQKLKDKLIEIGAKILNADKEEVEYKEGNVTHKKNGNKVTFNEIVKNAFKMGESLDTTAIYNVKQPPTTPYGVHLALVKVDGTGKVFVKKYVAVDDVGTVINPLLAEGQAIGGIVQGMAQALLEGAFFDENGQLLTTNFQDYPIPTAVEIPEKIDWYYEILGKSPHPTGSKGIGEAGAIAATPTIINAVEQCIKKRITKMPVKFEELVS
T1 sequence (Q974V0 1-168 partner): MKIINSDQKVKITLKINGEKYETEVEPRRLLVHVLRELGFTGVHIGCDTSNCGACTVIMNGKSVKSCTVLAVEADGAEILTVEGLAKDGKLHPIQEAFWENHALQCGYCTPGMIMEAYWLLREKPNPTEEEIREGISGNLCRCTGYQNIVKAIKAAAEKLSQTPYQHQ
The series can be described thus: X-ray crystal structure, […] Å. The class given is binding. The settings on record: bound in M-subunit; co-purified with native enzyme; crystals at pH 4.5.

The target in series [2] is LMS hetero-trimer unit of GAOR1 (STK17810/STK17830/STK17820) (Sulfolobus tokodaii (endogenous, purified from the cells)). Nature of the series: SEC; Superdex 200 10/30 gel filtration in buffer II (20 mM Tris-HCl pH 7.5, 0.25 M NaCl), molecular weights estimated against protein standards; oligomer of LMS hetero-trimer units.
The target of series [3] is LMS hetero-trimer unit of GAOR2 (STK23390/STK05620/STK05610) (Sulfolobus tokodaii (endogenous, purified from the cells)). The series can be described thus: crystal structure; GAOR2 purified from S. tokodaii, 8 mg/mL, sitting drop at 25°C, 0.1 M Na-acetate pH 4.5, 0.2 M CH3COONH4, 15% PEG 4,000; 2.2 Å; one LMS hetero-trimer in the asymmetric unit, (LMS)2 by crystallographic 2-fold symmetry.

Series [4] has the same target. Nature of the series: SEC; Superdex 200 10/30 gel filtration in buffer II (20 mM Tris-HCl pH 7.5, 0.25 M NaCl), molecular weights estimated against protein standards; oligomer of LMS hetero-trimer units.
Substrate in series [5]: O=CCc1c[nH]c2ccccc12
Nature of the series: purified protein. Format: biochemical, Sulfurisphaera tokodaii. The settings on record: 2 mM MV as electron acceptor, 50 mM MOPS-NaOH pH 7.0, 80°C.

Substrate in series [6]: O=CC(O)COP(=O)(O)O
Nature of the series: purified protein. The class given is biochemical, Sulfurisphaera tokodaii. The settings on record: 2 mM MV as electron acceptor, 50 mM MOPS-NaOH pH 7.0, 80°C.

Substrate in series [7]: O=C[C@H](O)CO
The series can be described thus: purified protein. Conditions: 0.1 mM DCPIP as electron acceptor, 50 mM MOPS-NaOH pH 7.0, 70°C.

Substrate in series [8]: CC=O
The series can be described thus: purified protein. Conditions: 2 mM MV as electron acceptor, 50 mM MOPS-NaOH pH 7.0, 80°C. Format: biochemical, Sulfurisphaera tokodaii.

Series [9] concerns the molecule itself. Nature of the series: crystal structure; GAOR2 purified from S. tokodaii, 8 mg/mL, sitting drop at 25°C, 0.1 M Na-acetate pH 4.5, 0.2 M CH3COONH4, 15% PEG 4,000; 2.2 Å; one LMS hetero-trimer in the asymmetric unit, (LMS)2 by crystallographic 2-fold symmetry.

For the molecule `Cc1cc2nc3c(=O)[nH]c(=O)nc-3n(C[C@H](O)[C@H](O)[C@H](O)COP(=O)(O)OP(=O)(O)OC[C@H]3O[C@@H](n4cnc5c(N)ncnc54)[C@H](O)[C@@H]3O)c2cc1C` [FAD], in series [1], the “X-ray crystal structure, 2.2 Å” value is “one Mo-PCD (L-subunit), one FAD (M-subunit), two [2Fe-2S] clusters”.
Consider “LMS hetero-trimer unit of GAOR1 (STK17810/STK17830/STK17820) (complex)”, for which, in series [2], the stoichiometry N is 4.
With “LMS hetero-trimer unit of GAOR2 (STK23390/STK05620/STK05610) (complex)”, the stoichiometry N in [3] and in series [4] was 2 throughout.

B1: GAOR3 (Sulfurisphaera tokodaii str. 7) (protein)
chain: MYVGQRVKRKEDLKLITGSGRYIDDIEIPGNLYIAILRSSVAHAKLKKIEYSDVLKLNGVYGVITGLTIPVENRPRNFPMAKDEILYMGQPIAAVLAKDRYVAVDALDYISYDYEELPAVIDPEEAINSKVKAIEDYDNIIYKKTYSGGNAEEAYEKSDVKIEEKLVISRVYAAPMEPRGLVVDYQQDRLTVYASTQSPHYMRSFLLSAFGDKVNDIRVIQADVGGAFGSKLFPYPEDYIAVFAALTYKRPVKLVNTRRDDLFSTYHSRGQIHKVKVGASKDGKINSILDDLIIDLGAAWHGTYLADIPATLITGPYDIKNAKVNVFGVLTNKTPLDQYRGAGRPEAAFVYERIMDIVADELKIDPIELRRKNIIQSTPYKNVMGLTYDSGDYNALLTKAESYYREMEQRAEELRRQGKRVGVGLSFYIEQNNFGPWESASVRLLSNGKVEVVIGAAPHGQGTATGIAQIVADELEISIDDVEVTWGDTDKISNAFGTYGSRSLTLAGNAALLASRKLKENIMKLAAQFMKSDVEELQYKDGKVFNPKTGKSMTLKEIAIKVTSNLGGVWRYKAEPTLEATASFGFDNYTFPYGSHIAMVEVTDEGVVKVLDYVAIDDIGVVVNPMLAEGQVHGGVIQGFGETLLEQIVYDNNGNLLTSTFADYLIPSAVESFNMKWFYTEIGKSNAPLPAKGIGEGATIGAPPALIRAIERAIGKRLTALPVKMEELSK
notes: LMS hetero-trimer; L 730 aa, M 278 aa, S 168 aa; 85 kDa by gel filtration; M-subunit); Putative oxidoreductase iron-sulfur subunit (S-subunit)
As for B1, the Michaelis constant (Km) was found to be 370 ± 390 µM in the series “purified protein [5]” (enzyme about 70% pure), 3.5 ± 1.1 µM in “purified protein [6]” (enzyme about 70% pure) and 11 ± 0 µM in “purified protein [7]” (enzyme about 70% pure). In addition, the turnover number (kcat) was found to be 3.58 ± 2.49 s⁻¹ in “purified protein [5]” (enzyme about 70% pure), 0.43 ± 0.03 s⁻¹ in “purified protein [6]” (enzyme about 70% pure) and 3.58 ± 0.11 s⁻¹ in the series “purified protein [7]” (enzyme about 70% pure).

B2: STK23390, molybdo-pyranopterin L-subunit of glyceraldehyde oxidoreductase GAOR2 (natural protein, UniProt Q96Y29 1-706, looked up)
chain: T1 sequence (Q96Y29 1-706 partner)
notes: STK23390, L-subunit of GAOR2, Sulfolobus tokodaii; Carries Mo-PCD; Cys405 and Cys689 form a disulfide bridge; also called L-subunit of GAOR2; ST23390
B2: the Km is 92 ± 17 µM in the series “purified protein [5]”, 85 ± 5 µM in the series “purified protein [6]”, 1330 ± 20 µM in “purified protein [8]” and 30 ± 9 µM in the series “purified protein [7]”. The kcat in “purified protein [5]” came out at 2.77 ± 0.22 s⁻¹; in the series “purified protein [6]”, 0.65 ± 0.01 s⁻¹; in the series “purified protein [8]”, 3.38 ± 0.02 s⁻¹; in “purified protein [7]”, 50.5 ± 0.05 s⁻¹. For the same molecule, in series [9], the “stoichiometry N” value is 2.
